Residue numbers refer to the chain shown, from its start.
B1: Humanized <TWEAK> 305- antibody 27 (antibody, V domains shown)
VH: QVQLVQSGAEVKKPGSSVKVSCKASGFDFSTYYMSWVRQAPGQGLEWMGTVYVRQGTTYYASWLNGRVTITADESTSTAYMELSSLRSEDTAVYYCARGGYNYDDAFVIWGQGTLVTVSS
VL: DIQMTQSPSSVSASVGDRVTITCQASQNIYSNLAWYQQKPGKAPKLLIYTASYLASGVPSRFSGSGSGTDYTLTISSLQPEDFATYYCQTAYYNSRPDTVAFGGGTKVEIK
B2: Humanized <TWEAK> 305- antibody 28 (antibody, V domains shown)
VH: EVQLLESGGGLVQPGGSLTLSCAASGFDFSTYYMSWVRQAPGKGLEWVSTVYVRQGTTYYASWLNGRFTISRDNSKNTLYLQMNSLRAEDTAVYYCAKGGYNYDDAFVIWGQGTLVTVSS
VL: B1 VL
B3: Humanized <TWEAK> 305- antibody 29 (antibody, V domains shown)
VH: B2 VH with T19R, Y80D
VL: B1 VL
B4: Humanized <TWEAK> 305- antibody 30 (antibody, V domains shown)
VH: B2 VH with T19R, R87T
VL: B1 VL with Y71F
B5: Humanized <TWEAK> 305- antibody 31 (antibody, V domains shown)
VH: B2 VH
VL: B1 VL with D1A, Q3R, V11F, V15T, S77C, P80S
B6: Humanized <TWEAK> 305- antibody 32 (antibody, V domains shown)
VH: B2 VH with T19R, Y80D
VL: B1 VL with S10T, V11L, D70E, Y71F, E81D
B7: Humanized <TWEAK> 305- antibody 33 (antibody, V domains shown)
VH: B1 VH
VL: B1 VL with D1A, Q3R, V11F, V15T, S77C, P80S
B8: Humanized <TWEAK> 305- antibody 34 (antibody, V domains shown)
VH: B2 VH with T19R
VL: B1 VL with D1A, Q3R, V11F, V15T, S77C, P80S
B9: <TWEAK> 305chi (antibody, human IgG1, kappa, V domains shown)
VH: QEQLVESGGGLVQPGGSLTLSCKASGFDFSTYYMSWVRQAPGKGLEWIGTVYVRQGTTYYASWLNGRFTISSDNAQNTVDLKMNSLTAADTATYFCAKGGYNYDDAFVIWGPGTLVTVSF
VL: AIEMTQTPFSVSAAVGGTVTINCQASQNIYSNLAWYQQKPGQPPKLLMYTASYLASGVPSRFKGSGSRTEYTLTISGVQCADAATYYCQTAYYNSRPDTVAFGGGTEVVVKR

These binders were tested against Biotinylated murine soluble TWEAK (amino acids 81-225 of SEQ ID NO: 69) (murine) (UniProt O54907) (assay: SPR (Biacore), biotinylated soluble TWEAK on streptavidin chip, 25 C).

Biacore t/2 diss. [min] 25° C. murine | Binder
19 min | B1
19 min | B2
22 min | B3
17 min | B4
19 min | B5
17 min | B6
19 min | B7
22 min | B8

These binders were tested against Biotinylated murine soluble TWEAK (amino acids 81-225 of SEQ ID NO: 69) (murine) (UniProt O54907) (assay: SPR (Biacore), biotinylated soluble TWEAK on streptavidin chip, 37 C).

Biacore t/2 diss. [min] 37° C. murine | Binder
19 min | B1
17 min | B2
21 min | B3
15 min | B4
19 min | B5
20 min | B6
15 min | B7
20 min | B8

Each binder was assayed against Biotinylated murine soluble TWEAK (amino acids 81-225 of SEQ ID NO: 69) (murine) (UniProt O54907) (assay: SPR (Biacore), further experiment, biotinylated soluble TWEAK on streptavidin chip, 25 C).

t/2 diss [min] 25° C. | Binder
41 min | B9

Each binder was assayed against Biotinylated murine soluble TWEAK (amino acids 81-225 of SEQ ID NO: 69) (murine) (UniProt O54907) (assay: SPR (Biacore 2000), biotinylated soluble TWEAK on streptavidin chip, antibody 100 nM as analyte, 25 C).

t/2 diss [min] 25° C. | Binder
39 min | B9

Source: patent US20150132307A1
